Substitutions are numbered along the chain they refer to.
T1: human B-cell maturation antigen (BCMA) on cells (human, UniProt Q02223 1-184)
T1 construct: Recombinant on HEK293 or K562 cells, or endogenous on cell lines (H929, RPMI 8226, OPM2, MM1S, Daudi); also called hBCMA; huBCMA
T1 chain: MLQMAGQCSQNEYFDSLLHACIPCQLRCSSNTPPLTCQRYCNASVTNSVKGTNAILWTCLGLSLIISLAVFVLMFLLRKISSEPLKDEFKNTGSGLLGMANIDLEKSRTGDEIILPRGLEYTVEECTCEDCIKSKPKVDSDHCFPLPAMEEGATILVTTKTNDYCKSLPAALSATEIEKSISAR

B1: BCMA-6 scFv (scFv)
scFv: QVQLVQSGGGLVQPGRSLRLSCTASGFTFGDYAMSWFRQAPGKGLEWVGFIRSKAYGGTTEYAASVKGRFTISRDDSKSIAYLQMNSLKTEDTAVYYCAAWSAPTDYWGQGTLVTVSSGGGGSGGGGSGGGGSDIVMTQSPSSLSVSVGERVTITCRASQSISNSLAWYKQRPGEAPKLLIHAASNVEDGVPSRFSGRGSGTVFTLAISNVQPEDFATYYCQQSHMYPPTFGGGTKVEIK
B2: BCMA-34 scFv (scFv)
scFv: TGQLVQSGGGLVQPGRSLRLSCAASGFTFDDYAMHWVRQAPGKGLEWVSGISWNSGSIGYADSVKGRFTISRDNAKNSLYLQMNSLRAEDTAVYYCARDLGPDYDPDAFDIWGQGTMVTVSSGGGGSGGGGSGGGGSEIVMTQSPATLSLSPGDRATLSCRASQSISNYLAWYQQKPGQAPRLLIYDASNRATGIPARFSGSGSGTDFTLTISSLEPEDFAVYYCQQRSNWPPYTFGQGTKLDIK
B3: BCMA-24 scFv (scFv)
scFv: EVQLVQSGGGLVKPGGSLRLSCAASGFTFSDYYMSWIRQAPGKGLEWVSGISWNSGSIGYADSVKGRFTISRDNAKNSLYLQMNSLRAEDTAVYYCARDLGPPYGDDAFDIWGQGTMVTVSSGGGGSGGGGSGGGGSDIVMTQSPDSLAVSLGERATINCKSSQSVLYSSNNKNYLAWYQQKPGQPPKLLIYWGSTRESGVPDRFSGSGSGTDFTLTISSLQAEDVAIYHCQQYISLPWTFGQGTKVEIK
B4: BCMA-8 scFv (scFv)
scFv: QVQLVQSGGGLVQPGRSLRLSCTASGFTFGDYAMSWFRQAPGKGLEWVGFIRSKAYGGTTEYAASVKGRFTISRDDSKSIAYLQMNSLKTEDTAVYYCAAWSAPTDYWGQGTLVTVSSGGGGSGGGGSGGGGSDIVMTQSPDSLAVSLGERATINCKSSQSVLYSSNNKNYLAWYQQKPGQPPKLLIYWASTRESGVPDRFSGSGSGTDFTLTISSLQAEDVAVYYCQQYYSTPYTFGQGTKLEIK
B5: BCMA-3 scFv (scFv)
scFv: B4 scFv with A145V, Y164H, S232T, Y235L, Q239G, L243V
B6: BCMA-44 scFv (scFv)
scFv: B4 scFv with Q1E, I135V, S161N, V162L, T233S
B7: BCMA-46 scFv (scFv)
scFv: B4 scFv with A145V, Y164H, S232T, Y235L, Q239G, L243V
B8: BCMA-31 scFv (scFv)
scFv: B4 scFv with Q1E, I135V, N155S, Y164N, L172V, Q176K, L186V, Y188S, E244D
B9: BCMA-16 scFv (scFv)
scFv: EVQLVQSGPEVKKPGTSVKVSCKASGFTFTSSAMQWVRQARGQRLEWIGWIVVGSGNTNYAQKFQERVTITRDMSTSTAYMELSSLRSEDTAVYYCAAAPYYDILTGYYLWGQGTLVTVSSGGGGSGGGGSGGGGSQSALTQPPSASGTPGQRVTISCSGSGSNIGSNDVSWYQQIPGTAPKLLIYWNDQRPSGVPDRFSGSKSGTSASLAISGLQSEDEADYYCASWDDSLSGWVFGGGTKLTVL
B10: BCMA-7 scFv (scFv)
scFv: QVQLVQSGGGLVQPGRSLRLSCTASGFTFGDYAMSWFRQAPGKGLEWVGFIRSKAYGGTTEYAASVKGRFTISRDDSKSIAYLQMNSLKTEDTAVYYCAAWSAPTDYWGQGTLVTVSSGGGGSGGGGSGGGGSVIQLTQSPSSLSASVGDRVTITCRASQDIGDYLAWFQQRPGKAPKSLIYVASTLQSGVPSRFSGSGSGTHFTLTINSLQPEDFATYYCQQYHSHPWTFGPGTKVDIK
B11: BCMA-18 scFv (scFv)
scFv: EVQLLESGGGLVQPGGSLRLSCAASGFTFSSYWMSWHRQAPGKGPEWVAHINQDGSEKYYVDSVKGRFTISRDNAESSLYLQMNSLRAEDTAVYYCARWLAVTNWGQGTLVTVSSGGGGSGGGGSGGGGSQSVLTQPPSASGTPGQRVTISCSGSGSNIGSNDVSWYQQIPGTAPKLLIYWNDQRPSGVPDRFSGSKSGTSASLAISGLRSEDEADYYCAAWDDSLNGWVFGGGTKLTVL
B12: BCMA-15 scFv (scFv)
scFv: QVQLLESGGGLVKPGGSLRLSCAASGFTFSSYGMHWVRQAPGKGLEWVAVISYDGSNKYYADSVKGRFTISRDNSKNTLYLQMNSLRAEDTAVYYCAKDQYSSSAQRADFDYWGQGTLVTVSSGGGGSGGGGSGGGGSQSVLTQPPSASGTPGQRVTISCSGSGSNIGSNDVSWYQQIPGTAPKLLIYWNDQRPSGVPDRFSGSKSGTSASLVISGLRSEDEADYYCAAWDDSLSGWVFGGGTKLTVL
B13: BCMA-2 scFv (scFv)
scFv: EVQLVESGGGLVKPGGSLRLSCAASGFTFSDYYMSWIRQAPGKGLEWVSYISSSGSTIYYADSVKGRFTISRDNAKNSLYLQMNSLRAEDTAVYYCAKVDGPPSSDIWGQGTMVTVSSGGGGSGGGGSGGGGSEIVMTQSPATLSVSPGETATLSCRASQSIKTNLAWYQQKPGQAPRLLIYAASTRATGIPDRFSGSGSGTDFTLTITRLEPEDFAVYYCQQYGSSPTFGRGTKLEIK
B14: BCMA-11 scFv (scFv)
scFv: QVQLVQSGGGLVQPGRSLRLSCAASGFTFDDYAMHWVRRAPGKGLEWVSGISWNSGSIGYADSVKGRFTISRDNAKNSLYLQMNSLRAEDTAVYYCARDLGPDYDPDAFDIWGQGTMVTVSSGGGGSGGGGSGGGGSQLVLTQPPSASGTPGQRVTISCSGSSSNIGSNAVNWYQQLPGTAPEVLIYNSHQRPSGVPDRFSGSKSGTSASLAINGLQSEDEADYYCAAWDDSLRGYVFGTGTKLTVL
B15: BCMA-21 scFv (scFv)
scFv: EVQLVESGGGLVKPGGSLKLSCAASGFTFSDYYMSWIRQAPGKGLEWVSYISSSGSTIYYADSVKGRFTISRDNAKNSLYLQMNSLRAEDTAVYYCAKVDGGYTEDYWGQGTLVTVSSGGGGSGGGGSGGGGSQSVLTQPPSASGTPGQRVTISCSGSGSNIGSNDVSWYQQIPGTAPKLLIYWNDQRPSGVPDRFSGSKSGISASLAISGLRSEDEADYYCAAWDDSLNGYVFGTGTKVTVL
B16: BCMA-32 scFv (scFv)
scFv: QVQLVESGGGLVKPGGSLRLSCAASGFTFSDYYMSWIRQAPGKGLEWVSYISSSGSTIYYADSVKGRFTISRDNAKNSLYLQMNSLRAEDTAVYYCAKVDGPPSFDIWGQGTMVTVSSGGGGSGGGGSGGGGSQTVVTQPPSVSVAPGQTARITCGGNNIGSKGVHWYRQRPGQAPEVVIYDDSDRPSGVPDRFSGSNSGNTATLTVRGVEAGDEADYYCQVWDSSSDHWVFGGGTKLTVL
B17: BCMA-22 scFv (scFv)
scFv: EVQLVESGGGLVKPGGSLRLSCAASGFTFSDYYMSWIRQAPGKGLEWVSYISSSGSTIYYADSVKGRFTISRDNAKNSLYLQMNSLRAEDTAVYYCAKVDGDYTEDYWGQGTLVTVSSGGGGSGGGGSGGGGSQSALTQPASVSGSPGQSITISCTGSSSDVGKYNLVSWYQQPPGKAPKLIIYDVNKRPSGVSNRFSGSKSGNTATLTISGLQGDDEADYYCCSYGGSRSYVFGTGTKVTVL
B18: BCMA-40 scFv (scFv)
scFv: B17 scFv with G163S, V240L
B19: BCMA-12 scFv (scFv)
scFv: EVQLVESGGGLVKPGGSLRLSCAASGFTFSDYYMSWIRQAPGKGLEWVSYISSSGSTIYYADSVKGRFTISRDNAKNSLYLQMNSLRAEDTAVYYCAKVDGPPSFDIWGQGTMVTVSSGGGGSGGGGSGGGGSQSALTQPPSVSAAPGQKVTISCSGSRSNIGNNYVSWYQQLPGTAPKLLIYDNAKRPSGIPDRFSGSKSGTSATLDIAGLQTGDEADYYCQVWDSSSDHWVFGGGTKLTVL
B20: BCMA-4 scFv (scFv)
scFv: QVQLVQSGGGLVQPGRSLRLSCTASGFTFGDYAMSWFRQAPGKGLEWVGFIRSKAYGGTTEYAASVKGRFTISRDDSKSIAYLQMNSLKTEDTAVYYCAAWSAPTDYWGQGTLVTVSSGGGGSGGGGSGGGGSAIRMTQSPSSLSASLGDRVTITCRASQDIRNSLAWYQQRPGKAPKLLLSAASRLESGVPSRFSGTTSGAEYALSISSLQPEDVASYFCQQYYSLPLSFGGGTKVEIK
B21: BCMA-17 scFv (scFv)
scFv: QVQLVQSGGGLVKPGGSLRLSCAASGFTFSDYYMSWIRLAPGKGLEWVSYISSSGSTIYYADSVKGRFTISRDNAKNSLYLQMNSLRAEDTAVYYCAREADSSADYWGQGTLVNVSSGGGGSGGGGSGGGGSQPVLTQPPSVSVAPGKTAMITCGGNNIGFKGVQWYQQKTGQAPVLVVYDDSDRPSGIPERFSGSNSGNTATLTISRVEAGDEADYYCQVWDSASDHWVFGGGTKLTVL
B22: BCMA-33 scFv (scFv)
scFv: B21 scFv with L39Q, S53G

Target: T1, human B-cell maturation antigen (BCMA) …
Assay: flow cytometry on BCMA-expressing HEK293 cells vs control cells, crude lysate or bacterial supernatant; clone listed in Table E2
Method: Specific binding of resulting scFv clones to BCMA-expressing HEK293 cells, as compared to control cells not expressing BCMA, was assessed by flow cytometry either with in vitro translated crude cell lysate or with bacterially-produced supernatant.

binding result	Binder
binds	B1
binds	B2
binds	B3
binds	B4
binds	B5
binds	B6
binds	B7
binds	B8
binds	B9
binds	B10
binds	B11
binds	B12
binds	B13
binds	B14
binds	B15
binds	B16
binds	B17
binds	B18
binds	B19
binds	B20
binds	B21
binds	B22

Reference: US20260109774A1 (JUNO THERAPEUTICS, published 2026)
